Results reported in patent US20250145722A1, “ANTI-GAL3 ANTIBODIES AND METHODS OF USE” (TrueBinding, Inc., priority 2020, published 2025).

Key:
[1] = target: T1, interaction of Gal3 and APP695 (Homo sapiens, UniProt P17931); experiment: Gal3-APP695 blocking ELISA; format: binding
T1 construct: purchased R&D Systems; QCB200349; QCB200352; host or cells: mammalian (R&D 8259-GA) or E. coli (QCB200349)
Protocol: To identify Gal3-targeted antibodies with the ability to block the interaction of Gal3 and APP695, purified Gal3 and APP695 proteins were incubated in the presence (or absence) of various Gal3-targeted or control antibodies, or without antibody, and protein interaction was evaluated by ELISA.
Human GAL3 (mammalian, R&D Systems, 8259-GA; E-coli derived, untagged, TrueBinding, QCB200349; or His-tagged, TrueBinding, QCB200352) was diluted in PBS (Corning, 21-030-CM) to a concentration of 4 μg/mL and added to the wells of a 96-well ELISA plate (Thermo Fisher, 44-2404-21). After incubating the plate at 4° C. overnight, the plate was washed three times with PBST (PBS with 0.05% Tween 20 [VWR, 0777]) and then blocked for an hour with 2% BSA (EMD Millipore, 126609) in PBST at room temperature with gentle rocking. Human APP695 (R&D Systems, 9937-AP) was biotinylated with EZ Link Sulfo-NHS-LC-Biotin (ThermoFisher Scientific, A39257) and desalted using a Zeba Spin Desalting Column (ThermoFisher Scientific, 89882), following the manufacturer's instructions. […] The reaction was stopped with 1M HCl (JT Baker, 5620-02) and read using a plate reader (Molecular Devices) at absorbance of 450 nm. Percent blockade of Gal3-APP695 interaction was calculated as the fraction of signal obtained in the absence of antibody with the background signal subtracted.

human Gal3 = target: T2, human Gal3 (Homo sapiens, UniProt P17931); experiment: Epitope binning assay, sandwich format, SPR-based Carterra LSA; settings: competitive binding for hGAL3
T2 construct: purchased AcroBio (Acro Biosystems) GA3-H5129
T2 sequence (P17931 whole entry): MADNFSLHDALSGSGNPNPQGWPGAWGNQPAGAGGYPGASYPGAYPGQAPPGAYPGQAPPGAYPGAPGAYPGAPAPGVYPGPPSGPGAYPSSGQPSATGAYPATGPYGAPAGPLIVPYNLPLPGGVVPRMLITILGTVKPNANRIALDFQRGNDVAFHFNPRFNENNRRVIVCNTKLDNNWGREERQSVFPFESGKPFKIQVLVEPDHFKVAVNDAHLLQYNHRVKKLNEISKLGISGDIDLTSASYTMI
Protocol: First, the purified antibodies were diluted to 10 μg/ml concentration in 10 mM NaOAc (pH 5.0) and then were covalently coupled via amine group to HC200M chip activated by EDC and S-NHS to immobilize antibodies to different positions of a 384-spot array. One hundred thirty-eight binning cycles were run on the array of immobilized antibodies. In each cycle, first, human Gal3 (AcroBio GA3-H5129) was injected over the entire array to bind to different antibodies (primary antibody), followed by one antibody (secondary antibody) selected among the panel of 150 anti-GAL3 antibodies tested. At the end of each cycle, the array was regenerated by 10 mM Glycine (pH 2.0) to remove bound antigen and secondary antibody from the array. The data analysis was done using the Epitope software by CarterraBio.

T1 sequence (P17931 2-250 limits assumed): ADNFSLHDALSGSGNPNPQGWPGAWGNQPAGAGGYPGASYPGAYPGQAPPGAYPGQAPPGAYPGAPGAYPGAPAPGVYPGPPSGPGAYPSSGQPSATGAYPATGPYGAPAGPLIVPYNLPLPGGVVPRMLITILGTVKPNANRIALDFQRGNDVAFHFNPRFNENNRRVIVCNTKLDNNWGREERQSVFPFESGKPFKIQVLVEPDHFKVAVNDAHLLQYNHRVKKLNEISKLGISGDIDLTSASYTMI

B1: F849C.8D12: anti-Gal3 antibody (antibody, V domains shown)
VH: EVQLQQSGPELVKPGSSVKISCKASRYTFTDYNMDWVKQSHGKRLEWIGYIYPNNGGTGYNQKFKGKATLTVDKSSSTAYMELRSLTSEDSAVYYCARSYYDGSYDAMDYWGQGTSVTVSS
VL: DIQMTQTTSSLSASLGDRVTISCSASQGISNYLNWYQQKPDGTVKLLIYYTSSLHSGVPSRFSGSGSGTDYSLTISNLEPEDIATYYCQQYSKLPRTFGGGTKLEI
modifications: misc_feature 1..363 849.8D12 VH nucleic acid; misc_feature 1..318 849.8D12 VL nucleic acid
notes: anti-Gal3 antibody
[1]
  Blocking of Gal3-APP695 binding (in words): did not impact

B2: 846.2B11: anti-Gal3 antibody (antibody, V domains shown)
VH: QVQLQQSGPELVRPGALVKISCKASGYTFTSYDINWVKQRPGQGLEWIGWIYPGDGSTKYNEKFKGKATLTADKSSSTAYMQLSSLTSENSAVYFCAREAASNAMDYWGQGTSVTVSS
VL: DIVLTQSPASLGVSLGQRATISCRASKSVSTSGYSYMHWYQQKPGQPPKLLIYLASILESGVPARFSGSGSGTDFTLNIHPVEEEDAAIYYCQHSRELPLTFGAGTKLELK
modifications: misc_feature 1..354 846.2B11 VH nucleic acid; misc_feature 1..333 846.2B11 VL nucleic acid
notes: anti-Gal3 antibody
Human Gal3
  Epitope bin: bin 16
